First the molecules themselves.
T1: TNFR1 (Homo sapiens, UniProt P19438)
T1 chain: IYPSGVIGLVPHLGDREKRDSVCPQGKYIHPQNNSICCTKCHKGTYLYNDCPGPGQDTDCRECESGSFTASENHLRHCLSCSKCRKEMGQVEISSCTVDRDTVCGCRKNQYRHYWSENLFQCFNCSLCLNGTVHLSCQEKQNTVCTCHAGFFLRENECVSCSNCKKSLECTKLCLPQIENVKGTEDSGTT

B1: R50T (designed binder)
chain: MTLQELLREEALRRAEAEAFRYALELLAEKFPEQKEYLLDLAEEIESQITSLSGVDVEDVRKFLDKEWAWVKELLAEHPAELAEVEAARAARLAELRAEVEAKVAA
B2: A80L (designed binder)
chain: MTLQELLREEALRRAEAEAFRYALELLAEKFPEQKEYLLDLAEEIESQIRSLSGVDVEDVRKFLDKEWAWVKELLAEHPLELAEVEAARAARLAELRAEVEAKVAA
B3: A23V (designed binder)
chain: MTLQELLREEALRRAEAEAFRYVLELLAEKFPEQKEYLLDLAEEIESQIRSLSGVDVEDVRKFLDKEWAWVKELLAEHPAELAEVEAARAARLAELRAEVEAKVAA
B4: V85N (designed binder)
chain: MTLQELLREEALRRAEAEAFRYALELLAEKFPEQKEYLLDLAEEIESQIRSLSGVDVEDVRKFLDKEWAWVKELLAEHPAELAENEAARAARLAELRAEVEAKVAA
B5: H78R (designed binder)
chain: MTLQELLREEALRRAEAEAFRYALELLAEKFPEQKEYLLDLAEEIESQIRSLSGVDVEDVRKFLDKEWAWVKELLAERPAELAEVEAARAARLAELRAEVEAKVAA
B6: A102S (designed binder)
chain: MTLQELLREEALRRAEAEAFRYALELLAEKFPEQKEYLLDLAEEIESQIRSLSGVDVEDVRKFLDKEWAWVKELLAEHPAELAEVEAARAARLAELRAEVESKVAA
B7: I45S (designed binder)
chain: MTLQELLREEALRRAEAEAFRYALELLAEKFPEQKEYLLDLAEESESQIRSLSGVDVEDVRKFLDKEWAWVKELLAEHPAELAEVEAARAARLAELRAEVEAKVAA
B8: A76Y (designed binder)
chain: MTLQELLREEALRRAEAEAFRYALELLAEKFPEQKEYLLDLAEEIESQIRSLSGVDVEDVRKFLDKEWAWVKELLYEHPAELAEVEAARAARLAELRAEVEAKVAA
B9: L93F (designed binder)
chain: MTLQELLREEALRRAEAEAFRYALELLAEKFPEQKEYLLDLAEEIESQIRSLSGVDVEDVRKFLDKEWAWVKELLAEHPAELAEVEAARAARFAELRAEVEAKVAA
B10: R97W (designed binder)
chain: MTLQELLREEALRRAEAEAFRYALELLAEKFPEQKEYLLDLAEEIESQIRSLSGVDVEDVRKFLDKEWAWVKELLAEHPAELAEVEAARAARLAELWAEVEAKVAA
B11: A94H (designed binder)
chain: MTLQELLREEALRRAEAEAFRYALELLAEKFPEQKEYLLDLAEEIESQIRSLSGVDVEDVRKFLDKEWAWVKELLAEHPAELAEVEAARAARLHELRAEVEAKVAA
B12: L7N (designed binder)
chain: MTLQELNREEALRRAEAEAFRYALELLAEKFPEQKEYLLDLAEEIESQIRSLSGVDVEDVRKFLDKEWAWVKELLAEHPAELAEVEAARAARLAELRAEVEAKVAA
B13: E29I (designed binder)
chain: MTLQELLREEALRRAEAEAFRYALELLAIKFPEQKEYLLDLAEEIESQIRSLSGVDVEDVRKFLDKEWAWVKELLAEHPAELAEVEAARAARLAELRAEVEAKVAA
B14: L82E (designed binder)
chain: MTLQELLREEALRRAEAEAFRYALELLAEKFPEQKEYLLDLAEEIESQIRSLSGVDVEDVRKFLDKEWAWVKELLAEHPAEEAEVEAARAARLAELRAEVEAKVAA
B15: E29D (designed binder)
chain: MTLQELLREEALRRAEAEAFRYALELLADKFPEQKEYLLDLAEEIESQIRSLSGVDVEDVRKFLDKEWAWVKELLAEHPAELAEVEAARAARLAELRAEVEAKVAA
B16: R21Q (designed binder)
chain: MTLQELLREEALRRAEAEAFQYALELLAEKFPEQKEYLLDLAEEIESQIRSLSGVDVEDVRKFLDKEWAWVKELLAEHPAELAEVEAARAARLAELRAEVEAKVAA
B17: L3V (designed binder)
chain: MTVQELLREEALRRAEAEAFRYALELLAEKFPEQKEYLLDLAEEIESQIRSLSGVDVEDVRKFLDKEWAWVKELLAEHPAELAEVEAARAARLAELRAEVEAKVAA
B18: K66W (designed binder)
chain: MTLQELLREEALRRAEAEAFRYALELLAEKFPEQKEYLLDLAEEIESQIRSLSGVDVEDVRKFLDWEWAWVKELLAEHPAELAEVEAARAARLAELRAEVEAKVAA
B19: A94E (designed binder)
chain: MTLQELLREEALRRAEAEAFRYALELLAEKFPEQKEYLLDLAEEIESQIRSLSGVDVEDVRKFLDKEWAWVKELLAEHPAELAEVEAARAARLEELRAEVEAKVAA
B20: R97T (designed binder)
chain: MTLQELLREEALRRAEAEAFRYALELLAEKFPEQKEYLLDLAEEIESQIRSLSGVDVEDVRKFLDKEWAWVKELLAEHPAELAEVEAARAARLAELTAEVEAKVAA
B21: F63N (designed binder)
chain: MTLQELLREEALRRAEAEAFRYALELLAEKFPEQKEYLLDLAEEIESQIRSLSGVDVEDVRKNLDKEWAWVKELLAEHPAELAEVEAARAARLAELRAEVEAKVAA
B22: L27S (designed binder)
chain: MTLQELLREEALRRAEAEAFRYALELSAEKFPEQKEYLLDLAEEIESQIRSLSGVDVEDVRKFLDKEWAWVKELLAEHPAELAEVEAARAARLAELRAEVEAKVAA
B23: H78V (designed binder)
chain: MTLQELLREEALRRAEAEAFRYALELLAEKFPEQKEYLLDLAEEIESQIRSLSGVDVEDVRKFLDKEWAWVKELLAEVPAELAEVEAARAARLAELRAEVEAKVAA
B24: A88M (designed binder)
chain: MTLQELLREEALRRAEAEAFRYALELLAEKFPEQKEYLLDLAEEIESQIRSLSGVDVEDVRKFLDKEWAWVKELLAEHPAELAEVEAMRAARLAELRAEVEAKVAA
B25: Y22H (designed binder)
chain: MTLQELLREEALRRAEAEAFRHALELLAEKFPEQKEYLLDLAEEIESQIRSLSGVDVEDVRKFLDKEWAWVKELLAEHPAELAEVEAARAARLAELRAEVEAKVAA
B26: A28L (designed binder)
chain: MTLQELLREEALRRAEAEAFRYALELLLEKFPEQKEYLLDLAEEIESQIRSLSGVDVEDVRKFLDKEWAWVKELLAEHPAELAEVEAARAARLAELRAEVEAKVAA
B27: R89W (designed binder)
chain: MTLQELLREEALRRAEAEAFRYALELLAEKFPEQKEYLLDLAEEIESQIRSLSGVDVEDVRKFLDKEWAWVKELLAEHPAELAEVEAAWAARLAELRAEVEAKVAA
B28: L75P (designed binder)
chain: MTLQELLREEALRRAEAEAFRYALELLAEKFPEQKEYLLDLAEEIESQIRSLSGVDVEDVRKFLDKEWAWVKELPAEHPAELAEVEAARAARLAELRAEVEAKVAA
B29: A23D (designed binder)
chain: MTLQELLREEALRRAEAEAFRYDLELLAEKFPEQKEYLLDLAEEIESQIRSLSGVDVEDVRKFLDKEWAWVKELLAEHPAELAEVEAARAARLAELRAEVEAKVAA
B30: A105F (designed binder)
chain: MTLQELLREEALRRAEAEAFRYALELLAEKFPEQKEYLLDLAEEIESQIRSLSGVDVEDVRKFLDKEWAWVKELLAEHPAELAEVEAARAARLAELRAEVEAKVFA
B31: R92W (designed binder)
chain: MTLQELLREEALRRAEAEAFRYALELLAEKFPEQKEYLLDLAEEIESQIRSLSGVDVEDVRKFLDKEWAWVKELLAEHPAELAEVEAARAAWLAELRAEVEAKVAA
B32: E77D (designed binder)
chain: MTLQELLREEALRRAEAEAFRYALELLAEKFPEQKEYLLDLAEEIESQIRSLSGVDVEDVRKFLDKEWAWVKELLADHPAELAEVEAARAARLAELRAEVEAKVAA
B33: A17K (designed binder)
chain: MTLQELLREEALRRAEKEAFRYALELLAEKFPEQKEYLLDLAEEIESQIRSLSGVDVEDVRKFLDKEWAWVKELLAEHPAELAEVEAARAARLAELRAEVEAKVAA
B34: E9M (designed binder)
chain: MTLQELLRMEALRRAEAEAFRYALELLAEKFPEQKEYLLDLAEEIESQIRSLSGVDVEDVRKFLDKEWAWVKELLAEHPAELAEVEAARAARLAELRAEVEAKVAA

We go through 34 molecules from PMC12416549 (2024).

In this assay the target is T1, TNFR1. The experiment in a line: yeast display SC50.
On to B1, for which the “apparent Kd (screen)” value amounted to 0.49 nM.

On to B2, for which the “apparent Kd (screen)” value was found to be 0.446 nM.

For the molecule B3, the “apparent Kd (screen)” value amounted to 0.653 nM.

Turning to B4, the “apparent Kd (screen)” value was determined as 0.653 nM.

Regarding B5, the “apparent Kd (screen)” value turned out to be 0.49 nM.

B6: the “apparent Kd (screen)” value was 0.79 nM.

On to B7, for which the “apparent Kd (screen)” value worked out at 7.78 nM.

For the molecule B8, the “apparent Kd (screen)” value was determined as 0.539 nM.

Turning to B9, the “apparent Kd (screen)” value stood at 0.539 nM.

Take B10: the “apparent Kd (screen)” value worked out at 0.49 nM.

Turning to B11, the “apparent Kd (screen)” value stood at 0.446 nM.

Consider B12, for which the “apparent Kd (screen)” value came to 24.4 nM.

For B13, the “apparent Kd (screen)” value amounted to 1.16 nM.

Regarding B14, the “apparent Kd (screen)” value came out at 2.73 nM.

For the molecule B15, the “apparent Kd (screen)” value turned out to be 0.49 nM.

For B16, the “apparent Kd (screen)” value turned out to be 0.539 nM.

Take B17: the “apparent Kd (screen)” value was 0.593 nM.

As to B18, the “apparent Kd (screen)” value came out at 0.539 nM.

Turning to B19, the “apparent Kd (screen)” value was 0.539 nM.

Regarding B20, the “apparent Kd (screen)” value stood at 0.539 nM.

In the case of B21, the “apparent Kd (screen)” value was determined as 2.05 nM.

With B22, the “apparent Kd (screen)” value worked out at 0.593 nM.

B23: the “apparent Kd (screen)” value came out at 0.869 nM.

Take B24: the “apparent Kd (screen)” value is 0.718 nM.

For the molecule B25, the “apparent Kd (screen)” value is 0.49 nM.

With B26, the “apparent Kd (screen)” value was found to be 20.2 nM.

For the molecule B27, the “apparent Kd (screen)” value is 0.956 nM.

On to B28, for which the “apparent Kd (screen)” value was found to be 2.48 nM.

As for B29, the “apparent Kd (screen)” value turned out to be 2.25 nM.

Consider B30, for which the “apparent Kd (screen)” value stood at 0.869 nM.

B31: the “apparent Kd (screen)” value was 0.539 nM.

For the molecule B32, the “apparent Kd (screen)” value was determined as 0.653 nM.

For the molecule B33, the “apparent Kd (screen)” value amounted to 1.16 nM.

As to B34, the “apparent Kd (screen)” value turned out to be 0.653 nM.
